Source: paper PMC4500961, “H2O2 production rate in Lactobacillus johnsonii is modulated via the interplay of a heterodimeric flavin oxidoreductase with a soluble 28 Kd PAS domain containing protein” (Frontiers in Microbiology, 2015)
Values belong to the molecule of their own block, whether it stands above or below them.

Experiments:
[1] = target: FRedB fused to the zinc finger DNA-binding domain of murine Zif268 (pACTR-fredB) (Lactobacillus johnsonii N6.2); test: two-hybrid; bacterial two-hybrid in E. coli KDZifΔZ (ω subunit fusion and Zif268 fusion), 10 μM IPTG, β-galactosidase activity with CPRG in arbitrary units; static or aerobic growth
FRedA/B = target: T1, FRedA/B (Lactobacillus johnsonii, UniProt A0A7D9N7Z8+A0A7D9N811); test: isothermal titration calorimetry; type: binding
T1 construct: gene T285_08435; full-length, both chains N-terminal His6, co-expressed and co-purified from E. coli BL21 (p15TV-fredA + pCDF-his-fredB); heterodimer 43 kDa
Description: isothermal titration calorimetry on FRedA/B | FMN binding to the FRedA/B heterodimer is an exergonic reaction

[2] = target: His6-FRedB (putative FMN reductase FRedB of Lactobacillus johnsonii N6.2, from p15TV-fredB, individually purified) (Lactobacillus johnsonii N6.2)
purified protein [3] = substrate: Cc1cc2nc3c(=O)[nH]c(=O)nc-3n(C[C@H](O)[C@H](O)[C@H](O)COP(=O)(O)O)c2cc1C; test: purified protein; type: biochemical, Lactobacillus johnsonii; conditions: fixed NADH, 100 mM MES pH 5.5, 37 °C
purified protein [4] = substrate: NC(=O)C1=CN([C@@H]2O[C@H](COP(=O)(O)OP(=O)(O)OC[C@H]3O[C@@H](n4cnc5c(N)ncnc54)[C@H](O)[C@@H]3O)[C@@H](O)[C@H]2O)C=CC1; test: purified protein; type: biochemical, Lactobacillus johnsonii; conditions: fixed flavin electron acceptor, 100 mM MES pH 5.5, 37 °C
purified protein [5] = substrate: Cc1cc2nc3c(=O)[nH]c(=O)nc-3n(C[C@H](O)[C@H](O)[C@H](O)COP(=O)(O)OP(=O)(O)OC[C@H]3O[C@@H](n4cnc5c(N)ncnc54)[C@H](O)[C@@H]3O)c2cc1C; test: purified protein; type: biochemical, Lactobacillus johnsonii; conditions: fixed NADH, 100 mM MES pH 5.5, 37 °C

Molecule: FRedA fused to the ω subunit of E. coli RNA polymerase (pBR-fredA) (natural protein)
β-galactosidase activity [1]: 11700 AU

B1: FRedA/B (Lactobacillus johnsonii N6.2) (protein)
chain 1: MKLLAIVGTNADFSYNRFLDQFMAKRYKDQAEIEVYEIADLPRFKKEAQPDSKVEEFKNKIREADGVIFATPEYDHGIPSALKSAMEWTGSHAQGNADVMKMKPAMVLGTSYGIQGASRAQEEMREILLSPDQSANVLPGNEVLIGHAADKFDKNTGDLLDQETIHAIDLAFNNFVKFVEQAQK
chain 2: MKLFAIVGSNADHSYNRDLLNFIKKHFTDRYDIELGEVKDLPMFKEGVKEPAAVASFAKKVADADAVLISTPEQQHSVPSSLKSALEWLSSAEHPFKDKPVVIVGTSVLPQGSARGQSHLKLVLSSPGFGAKVFNGDEFMMGTAPEQFDENGNLPAGTVKFLDHFFDEFDSFYAEVSK
notes: full-length, both chains N-terminal His6, co-expressed and co-purified from E. coli BL21 (p15TV-fredA + pCDF-his-fredB); heterodimer 43 kDa
Km (purified protein [3]): 20.36 ± 2.6 µM
Vmax (purified protein [3]): 204 µmol/min/mg
kcat (purified protein [3]): 146 s⁻¹
kcat/Km (purified protein [3]): 7.16e+06 M⁻¹ s⁻¹
Km (purified protein [4]): 59.68 ± 5.8 µM
Vmax (purified protein [4]): 185 µmol/min/mg
kcat (purified protein [4]): 132 s⁻¹
kcat/Km (purified protein [4]): 2.22e+06 M⁻¹ s⁻¹
Km (purified protein [5]): 19.85 ± 2.5 µM
Vmax (purified protein [5]): 67 µmol/min/mg
kcat (purified protein [5]): 48 s⁻¹
kcat/Km (purified protein [5]): 2.42e+06 M⁻¹ s⁻¹

The remaining lines, values ahead:

Kd (FRedA/B): 1960 ± 130 nM
Molecule: Cc1cc2nc3c(=O)[nH]c(=O)nc-3n(C[C@H](O)[C@H](O)[C@H](O)COP(=O)(O)O)c2cc1C [FMN]

initial rate (V0) of NADH oxidase activity, FRedB preincubated with purified LjPAS (reduced by 50%) (μmol min^-1 mg^-1) [2]: 2.6
initial rate (Vo) of NADH oxidase activity, both monomers combined and incubated with FMN before addition of NADH (μmol min^-1 mg^-1) [2]: 31.3
initial rate of NADH oxidase activity, FRedA preincubated with FMN before addition of FRedB (μmol min^-1 mg^-1) [2]: 0.27
initial rate of NADH oxidase activity, FRedB preincubated with FMN before addition of FRedA (μmol min^-1 mg^-1) [2]: 6.48
initial rate of NADH oxidase activity, purified LjPAS added after FRedA and FRedB were preincubated with FMN (not significantly slower) (μmol min^-1 mg^-1) [2]: 25.2
Molecule: His6-FRedA (putative FMN reductase FRedA of Lactobacillus johnsonii N6.2, from p15TV-fredA) (natural protein)
